Paper PMC6555636

Columns and labels:
[1] = target: EXP2 (P. falciparum (endogenous in strain NF54attB)); assay: cryo-EM structure
[2] = target: PTEX150 (P. falciparum (endogenous in strain NF54attB)); assay: cryo-EM structure

| Substance | stoichiometry N [1] | stoichiometry N [2] |
| --- | --- | --- |
| EXP2 (natural protein) | 7 | – |
| PTEX150 (natural protein) | – | 7 |
